Measured values taken from article PMC4376263 (International Journal of Nanomedicine, 2015).
“And” between values parts separate entries of the source, which are not always exact repeats. Equal entries are not always repeated. Where two headings read alike, the source gives them in different places.

Key:
[1] = test system: murine colon adenocarcinoma cell line CT26; assay: In vitro cytotoxicity; assay type: cell-based; conditions: for fold more potent than CPT-11: ratio of IC50 values
CT26 tumor xenograft = assay type: in vivo, BALB/c mice; conditions: for Body weight Final / Body weight Initial / IRT (inhibition ratio of the tumor) / Tumor weight Mean ± SD: n=8; for Histological section examination of tumor (H&E): day 14
[2] = Particle size and zeta potential of micelles; assay type: physicochemical; conditions: 25°C, n=3
[3] = Pharmacokinetic study after intravenous administration to SD rats; conditions: n=6; for Cmax of free SN38: free SN38 in plasma, intravenous 10 mg/kg (equivalent to SN38); for AUC0–24 of prodrug / Cmax of prodrug: prodrug form in plasma (equivalent to SN38); for AUC0–24 of prodrug / Cmax of prodrug / CL of prodrug / MRT0–24 of prodrug / T1/2 of prodrug: intravenous 10 mg/kg; for CL of prodrug / MRT0–24 of prodrug / T1/2 of prodrug: prodrug form in plasma
[4] = Critical micelle concentration; assay type: physicochemical; conditions: aqueous medium, coumarin-6 probe
Drug-loading measurement = assay type: physicochemical; conditions: weight of SN38 / weight of prodrug, HPLC with UV detector, triplicate
[5] = In vitro drug release by dialysis; assay type: physicochemical; conditions: by 48 hours, 37°C, pH 6.5 PBS, pH 7.4 PBS, 25% liver homogenate, 50% plasma; P<0.05
[6] = 2.5 mg/kg (equivalent to SN38) i.v. every 2 days for 2 weeks
[7] = CT26 cells, 48 hours incubation, MTT, equivalent to SN38, mean ± SD, n=3
[8] = 1.25 mg/kg (equivalent to SN38) i.v. every 2 days for 2 weeks

Compound | IC50 ([1]; Mus musculus, CT26, 48 h) | Body weight Final (CT26 tumor xenograft; [6]) | Body weight Initial (CT26 tumor xenograft; [6]) | IRT (inhibition ratio of the tumor) (CT26 tumor xenograft; [6]) | Tumor weight Mean ± SD (CT26 tumor xenograft; [6]) | Histological section examination of tumor (H&E) (CT26 tumor xenograft; 2.5 mg/kg) | IC50 [1, 7] | fold more potent than CPT-11 ([1]; CT26 cells) | mean particle size [2] | mean zeta potential [2] | Cmax of free SN38 [3] | AUC0–24 of prodrug [3] | Cmax of prodrug [3] | CL of prodrug [3] | MRT0–24 of prodrug [3] | T1/2 of prodrug [3] | Body weight Final (CT26 tumor xenograft; [8]) | Body weight Initial (CT26 tumor xenograft; [8]) | IRT (inhibition ratio of the tumor) (CT26 tumor xenograft; [8]) | Tumor weight Mean ± SD (CT26 tumor xenograft; [8]) | other results
CCc1c2c(nc3ccc(OC(=O)N4CCC(N5CCCCC5)CC4)cc13)-c1cc3c(c(=O)n1C2)COC(=O)[C@]3(O)CC [CPT-11, irinotecan, reference compound] | 46.7 µM | 23.6 ± 1.67 g | 19.8 ± 1.73 g | 23.5% | 2.51 ± 0.36 g | Partial tumor tissue necrosis | – | – | – | – | – | – | – | – | – | – | – | – | – | – | –
CCc1c2c(nc3ccc(O)cc13)-c1cc3c(c(=O)n1C2)COC(=O)[C@]3(O)CC [SN38, 7-Ethyl-10-hydroxycamptothecin, reference compound] | 0.0204 ± 0.0018 µM | – | – | – | – | – | – | – | – | – | – | – | – | – | – | – | – | – | – | – | –
chitosan-(C10-OH)SN38 [CS-(10s)SN38] | – | 22.7 ± 1.96 g | 20.4 ± 2.11 g | 47.8 ^a, ^b % | 1.71 ± 0.21 g | extensive tissue necrosis | 3.5 µM | 13.3 fold | 128.0±1.8 nm | 21.1±0.5 mV | 3,057.78±637.61 μg/L | 89.84±8.01 ×10^3 μg⋅h/L | 46.89±6.56 ×10^3 μg/L | 0.11 ± 0.01 L/h/kg | 4.90 ± 0.66 h | 5.40 ± 1.29 h | 24.6 ± 1.24 g | 20.0 ± 1.73 g | 27.7% | 2.37 ± 0.19 g | Histological section examination of tumor (H&E) (CT26 tumor xenograft; 1.25 mg/kg): Partial tumor tissue necrosis; CMC (critical micelle concentration) [4]: 15 µg/mL; drug loading (Drug-loading measurement): 16.5%±0.7%
chitosan-(C20-OH)SN38 [CS-(20s)SN38] | – | 21.5 ± 2.52 g | 19.6 ± 1.57 g | 64.7% and 64.7 ^a, ^c, ^d % | 1.15 ± 0.09 g | extensive tissue necrosis | 1.8 µM | 25.9 fold | 122.4±1.1 nm | 22.3±0.4 mV | 2,489.43±153.63 μg/L | 133.07±11.10 ×10^3 μg⋅h/L | 48.43±4.27 ×10^3 μg/L | 0.07 ± 0.01 L/h/kg | 4.94 ± 1.58 h | 7.05 ± 2.04 h | 24.1 ± 1.31 g | 20.6 ± 1.31 g | 31% | 2.24 ± 0.27 g | drug release compared with CS-(10s)SN38 [5]: slower drug release; Histological section examination of tumor (H&E) (CT26 tumor xenograft; 1.25 mg/kg): Partial tumor tissue necrosis; CMC (critical micelle concentration) [4]: 12 µg/mL; drug loading (Drug-loading measurement): 17.4%±0.8%
